T1: human complement C1s enzyme (activated C1s) (human, UniProt P09871 16-437; P09871 438-688)
T1 sequence 1: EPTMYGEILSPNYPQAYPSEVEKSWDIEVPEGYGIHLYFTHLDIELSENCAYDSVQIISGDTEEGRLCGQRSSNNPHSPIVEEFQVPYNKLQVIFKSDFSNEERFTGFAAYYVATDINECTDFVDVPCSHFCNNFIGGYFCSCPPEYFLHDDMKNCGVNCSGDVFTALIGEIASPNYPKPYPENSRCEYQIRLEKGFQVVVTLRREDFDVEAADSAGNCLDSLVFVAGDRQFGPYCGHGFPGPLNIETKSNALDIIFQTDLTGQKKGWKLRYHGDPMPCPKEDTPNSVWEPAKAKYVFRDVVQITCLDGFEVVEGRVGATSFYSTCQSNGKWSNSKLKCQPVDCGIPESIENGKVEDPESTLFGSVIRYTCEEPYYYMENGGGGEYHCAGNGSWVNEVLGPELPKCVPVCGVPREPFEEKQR
T1 sequence 2: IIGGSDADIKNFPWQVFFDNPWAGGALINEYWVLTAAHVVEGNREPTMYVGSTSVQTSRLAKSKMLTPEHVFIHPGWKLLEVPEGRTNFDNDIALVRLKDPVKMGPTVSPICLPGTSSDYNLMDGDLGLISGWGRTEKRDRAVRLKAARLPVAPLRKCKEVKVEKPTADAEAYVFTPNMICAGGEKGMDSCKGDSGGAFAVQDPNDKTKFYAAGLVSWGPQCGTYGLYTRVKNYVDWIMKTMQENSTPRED


Experiments:
[1] = molecular target: T2, human complement factor Bb (human, UniProt P00751 260-764); experiment: cell-based or functional assay
[2] = molecular target: T1, human complement C1s enzyme (activated …); experiment: cell-based or functional assay
[3] = molecular target: T2, human complement factor Bb; experiment: BLI (Octet), biotinylated target on streptavidin sensor
Description: (§1) Bio-layer interferometry (BLI) was used to assess the recombinant proteins' target engagement to and binding affinity for complement C1s enzyme (active C1s or “C1s” herein) and factor Bb (Bb) (Complement Technology, Tyler, TX, USA). C1s and Bb were biotinylated with EZ-Link™ Sulfo-NHS-LC-LC-Biotin (Thermo Fisher, Waltham, MA, USA) according to manufacturer instructions. Biotinylated C1s or Bb was loaded on Octet® Streptavidin (SA) Biosensors (Sartorius, Göttingen, Germany), followed by a concentration range of purified proteins. To assess dual target engagement, biotinylated active C1s or Bb was loaded onto sensors, followed by purified proteins (“first association phase”), followed by the non-captured complement target (Bb or active C1s, non-biotinylated; “second association phase”). The assays were performed at 30° C. using PBS with 0.1% Tween 20 as a diluent (FIG. 3).

[4] = molecular target: T1, human complement C1s enzyme (activated …); experiment: as above
Description: as §1

T2 sequence (P00751 260-764): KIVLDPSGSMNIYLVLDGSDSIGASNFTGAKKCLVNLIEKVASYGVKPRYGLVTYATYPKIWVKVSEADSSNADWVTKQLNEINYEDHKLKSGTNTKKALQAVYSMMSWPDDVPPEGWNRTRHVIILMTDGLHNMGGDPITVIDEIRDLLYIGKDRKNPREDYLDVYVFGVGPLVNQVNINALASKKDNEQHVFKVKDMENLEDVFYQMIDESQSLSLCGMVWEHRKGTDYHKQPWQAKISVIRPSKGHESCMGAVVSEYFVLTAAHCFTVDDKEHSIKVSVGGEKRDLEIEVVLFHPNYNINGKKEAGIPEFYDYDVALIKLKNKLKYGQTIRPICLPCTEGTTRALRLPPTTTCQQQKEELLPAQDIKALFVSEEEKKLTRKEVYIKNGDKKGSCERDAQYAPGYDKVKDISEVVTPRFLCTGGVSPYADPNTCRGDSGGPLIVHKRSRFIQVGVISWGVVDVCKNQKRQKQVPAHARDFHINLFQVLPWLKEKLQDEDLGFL

Row | Binder | IC50 AP (Wieslab) [1] [nM] | IC50 CP (Wieslab) [2] [nM] | Kd [3] [nM] | koff [3] [s⁻¹] | kon [3] [M⁻¹ s⁻¹] | Kd [4] [nM] | koff [4] [s⁻¹] | kon [4] [M⁻¹ s⁻¹] | IC50 AP (Wieslab); curve not saturated, estimated [1] [nM]
1 | construct #13: αC1s scFab-(G4S)2-αBb scFv (bispecific antibody, Residues 1-20 were left out as the signal peptide, which is marked by boldface only) DIVLTQSPDSLAVSLGERATISCKASQSVDYDGDSYMNWYQQKPGQPPKILIYDASNLESGIPARFSGSGSGTDFTLTISSLEPEDFAIYYCQQSNEDPWTFGGGTKVEIKRTVAAPSVFIFPPSDEQLKSGTASVVCLLNNFYPREAKVQWKVDNALQSGNSQESVTEQDSKDSTYSLSSTLTLSKADYEKHKVYACEVTHQGLSSPVTKSFNRGECGGGGSGGGGSGGGGSGGGGSGGGGSGGGGSGGGGSQVQLVQSGAEVKKPGASVKLSCTASGFNIKDDYIHWVKQAPGQGLEWIGRIDPADGHTKYAPKFQVKVTITADTSTSTAYLELSSLRSEDTAVYYCARYGYGREVFDYWGQGTTVTVSSASTKGPSVFPLAPCSRSTSESTAALGCLVKDYFPEPVTVSWNSGALTSGVHTFPAVLQSSGLYSLSSVVTVPSSSLGTKTYTCNVDHKPSNTKVDKRVGGGGSGGGGSEVQLVESGGGLVKPGGSLRLSCAASGFTFSNYAMSWVRQAPGKRLEWVATISNRGSYTYYPDSVKGRFTISRDNAKNSLYLQMNSLRAEDTALYYCARERPMDYWGQGTLVTVSSGGGGSGGGGSGGGGSDIQMTQSPSTLSASVGDRVTITCKASQDVGTAVAWYQQKPGKAPKLLIYWASTRHTGVPDRFSGSGSGTDFTLTISSLQAEDFAVYFCHQHSSNPLTFGQGTKLEIK | 201 | 44.4 | 3 | 0.00022 | 70000 | 1 | 0.00029 | 300000 | 
2 | construct #19: αC1s scFab-(G4S)3-αBb F2A Fab (bispecific antibody) DIVLTQSPDSLAVSLGERATISCKASQSVDYDGDSYMNWYQQKPGQPPKILIYDASNLESGIPARFSGSGSGTDFTLTISSLEPEDFAIYYCQQSNEDPWTFGGGTKVEIKRTVAAPSVFIFPPSDEQLKSGTASVVCLLNNFYPREAKVQWKVDNALQSGNSQESVTEQDSKDSTYSLSSTLTLSKADYEKHKVYACEVTHQGLSSPVTKSFNRGECGGGGSGGGGSGGGGSGGGGSGGGGSGGGGSGGGGSQVQLVQSGAEVKKPGASVKLSCTASGFNIKDDYIHWVKQAPGQGLEWIGRIDPADGHTKYAPKFQVKVTITADTSTSTAYLELSSLRSEDTAVYYCARYGYGREVFDYWGQGTTVTVSSASTKGPSVFPLAPCSRSTSESTAALGCLVKDYFPEPVTVSWNSGALTSGVHTFPAVLQSSGLYSLSSVVTVPSSSLGTKTYTCNVDHKPSNTKVDKRVGGGGSGGGGSGGGGSEVQLVESGGGLVKPGGSLRLSCAASGFTFSNYAMSWVRQAPGKRLEWVATISNRGSYTYYPDSVKGRFTISRDNAKNSLYLQMNSLRAEDTALYYCARERPMDYWGQGTLVTVSSASTKGPSVFPLAPCSRSTSESTAALGCLVKDYFPEPVTVSWNSGALTSGVHTFPAVLQSSGLYSLSSVVTVPSSSLGTKTYTCNVDHKPSNTKVDKRV light: DIQMTQSPSTLSASVGDRVTITCKASQDVGTAVAWYQQKPGKAPKLLIYWASTRHTGVPDRFSGSGSGTDFTLTISSLQAEDFAVYFCHQHSSNPLTFGQGTKLEIKRTVAAPSVFIFPPSDEQLKSGTASVVCLLNNFYPREAKVQWKVDNALQSGNSQESVTEQDSKDSTYSLSSTLTLSKADYEKHKVYACEVTHQGLSSPVTKSFNRGEC |  | 34 |  |  |  |  |  |  | ~2090
3 | construct #6: αBb scFv-(G4S)2-αC1s scFv (bispecific antibody) EVQLVESGGGLVKPGGSLRLSCAASGFTFSNYAMSWVRQAPGKRLEWVATISNRGSYTYYPDSVKGRFTISRDNAKNSLYLQMNSLRAEDTALYYCARERPMDYWGQGTLVTVSSGGGGSGGGGSGGGGSDIQMTQSPSTLSASVGDRVTITCKASQDVGTAVAWYQQKPGKAPKLLIYWASTRHTGVPDRFSGSGSGTDFTLTISSLQAEDFAVYFCHQHSSNPLTFGQGTKLEIKGGGGSGGGGSQVQLVQSGAEVKKPGASVKLSCTASGFNIKDDYIHWVKQAPGQGLEWIGRIDPADGHTKYAPKFQVKVTITADTSTSTAYLELSSLRSEDTAVYYCARYGYGREVFDYWGQGTTVTVSSGGGGSGGGGSGGGGSDIVLTQSPDSLAVSLGERATISCKASQSVDYDGDSYMNWYQQKPGQPPKILIYDASNLESGIPARFSGSGSGTDFTLTISSLEPEDFAIYYCQQSNEDPWTFGGGTKVEIK |  | 118 |  |  |  |  |  |  | ~1260
4 | construct #5: αC1s scFv-(G4S)2-αBb scFv (bispecific antibody) QVQLVQSGAEVKKPGASVKLSCTASGFNIKDDYIHWVKQAPGQGLEWIGRIDPADGHTKYAPKFQVKVTITADTSTSTAYLELSSLRSEDTAVYYCARYGYGREVFDYWGQGTTVTVSSGGGGSGGGGSGGGGSDIVLTQSPDSLAVSLGERATISCKASQSVDYDGDSYMNWYQQKPGQPPKILIYDASNLESGIPARFSGSGSGTDFTLTISSLEPEDFAIYYCQQSNEDPWTFGGGTKVEIKGGGGSGGGGSEVQLVESGGGLVKPGGSLRLSCAASGFTFSNYAMSWVRQAPGKRLEWVATISNRGSYTYYPDSVKGRFTISRDNAKNSLYLQMNSLRAEDTALYYCARERPMDYWGQGTLVTVSSGGGGSGGGGSGGGGSDIQMTQSPSTLSASVGDRVTITCKASQDVGTAVAWYQQKPGKAPKLLIYWASTRHTGVPDRFSGSGSGTDFTLTISSLQAEDFAVYFCHQHSSNPLTFGQGTKLEIK |  | 216 |  |  |  |  |  |  | ~2830
5 | construct #8: αBb scFab-(G4S)3-αC1s scFab (bispecific antibody, Signal peptide marked by boldface only) DIQMTQSPSTLSASVGDRVTITCKASQDVGTAVAWYQQKPGKAPKLLIYWASTRHTGVPDRFSGSGSGTDFTLTISSLQAEDFAVYFCHQHSSNPLTFGQGTKLEIKRTVAAPSVFIFPPSDEQLKSGTASVVCLLNNFYPREAKVQWKVDNALQSGNSQESVTEQDSKDSTYSLSSTLTLSKADYEKHKVYACEVTHQGLSSPVTKSFNRGECGGGGSGGGGSGGGGSGGGGSGGGGSGGGGSGGGGSEVQLVESGGGLVKPGGSLRLSCAASGFTFSNYAMSWVRQAPGKRLEWVATISNRGSYTYYPDSVKGRFTISRDNAKNSLYLQMNSLRAEDTALYYCARERPMDYWGQGTLVTVSSASTKGPSVFPLAPCSRSTSESTAALGCLVKDYFPEPVTVSWNSGALTSGVHTFPAVLQSSGLYSLSSVVTVPSSSLGTKTYTCNVDHKPSNTKVDKRVGGGGGSGGGGSGGGGSDIVLTQSPDSLAVSLGERATISCKASQSVDYDGDSYMNWYQQKPGQPPKILIYDASNLESGIPARFSGSGSGTDFTLTISSLEPEDFAIYYCQQSNEDPWTFGGGTKVEIKRTVAAPSVFIFPPSDEQLKSGTASVVCLLNNFYPREAKVQWKVDNALQSGNSQESVTEQDSKDSTYSLSSTLTLSKADYEKHKVYACEVTHQGLSSPVTKSFNRGECGGGGSGGGGSGGGGSGGGGSGGGGSGGGGSGGGGSQVQLVQSGAEVKKPGASVKLSCTASGFNIKDDYIHWVKQAPGQGLEWIGRIDPADGHTKYAPKFQVKVTITADTSTSTAYLELSSLRSEDTAVYYCARYGYGREVFDYWGQGTTVTVSSASTKGPSVFPLAPCSRSTSESTAALGCLVKDYFPEPVTVSWNSGALTSGVHTFPAVLQSSGLYSLSSVVTVPSSSLGTKTYTCNVDHKPSNTKVDKRV | 420 | 87.7 | 1.8 | 0.00021 | 120000 | 2.1 | 0.00063 | 300000 | 

Source: patent US20240401082A1 (Sanofi, published 2024)
